The text below walks through data of patent publication US20160137739A1 (KINIKSA PHARMACEUTICALS, published 2016).

As a reminder, the EC50 is the concentration that produces a half-maximal response. The Kd is the constant that tells how readily two partners part at equilibrium. For orientation: koff means the rate constant with which the complex falls apart. As usually defined, the kon is the rate constant with which the complex forms.

B1: Ab1 (antibody, human IgG2, lambda, V domains shown)
VH: QVQLVQSGAEVKKPGASVKVSCKASGYTFTSYDINWVRQATGQGLEWMGWMNPNSGNTDYAQKFQGRVTMTRNISISTAYIELSSLRSEDTAVYYCARDMVAANTDYYFYYGMDVWGQGTTVTVSS
VL: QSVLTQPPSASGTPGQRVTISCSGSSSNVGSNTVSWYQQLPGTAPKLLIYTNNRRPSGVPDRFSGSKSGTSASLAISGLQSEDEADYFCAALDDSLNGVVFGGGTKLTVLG
notes: also called Ab1 IgG2 WT; antibody 1
B2: Ab2 (antibody, human IgG2, lambda, V domains shown)
VH: B1 VH with D33E, N57Y, D59G, I74T, I81M, L83M, M100I
VL: QSVLTQPPSASGTPGQRVTISCSGSNSNIGSNTVNWYHQLPGTAPKLLIYNINKRPSGVPDRFSGSKSGSSASLAISGLQSEDEADYYCSTWDDSLDGVVFGGGTKLTVLG
notes: also called Ab2 IgG2 WT; antibody 2
B3: Ab3 (antibody, human IgG2, kappa, V domains shown)
VH: QVHLVQSGAEVKKPGASVKVSCKASGYTFTSYGISWVRQAPGQGLEWMGWLSTYSGNTNYAQKLQGRVTMTTDTSTSTAYMELRSLRSDDTAVYYCARGNFYYYGMDVWGQGTTVTVSS
VL: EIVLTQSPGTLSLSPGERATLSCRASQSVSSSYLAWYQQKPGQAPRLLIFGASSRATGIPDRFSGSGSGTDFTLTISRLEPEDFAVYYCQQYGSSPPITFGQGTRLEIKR
notes: also called antibody 3
B4: Ab1 N73D IgG4P agly/IgG1 (antibody, V domains shown)
VH: B1 VH with N73D
VL: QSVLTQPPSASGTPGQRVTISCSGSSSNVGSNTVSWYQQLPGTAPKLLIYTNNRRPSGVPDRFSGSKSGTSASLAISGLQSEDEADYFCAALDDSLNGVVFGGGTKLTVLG
B5: Ab1 N73D IgG2 (antibody, V domains shown)
VH: B1 VH with N73D
VL: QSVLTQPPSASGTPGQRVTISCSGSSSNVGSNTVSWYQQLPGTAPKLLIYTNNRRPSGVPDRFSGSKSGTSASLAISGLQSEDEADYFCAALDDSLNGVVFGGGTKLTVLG
notes: also called Ab1 version 2
B6: Ab2 N73D IgG4P agly/IgG1 (antibody, V domains shown)
VH: B1 VH with D33E, N57Y, D59G, N73D, I74T, I81M, L83M, M100I
VL: B2 VL
B7: Ab2 N73D IgG2 (antibody, V domains shown)
VH: B1 VH with D33E, N57Y, D59G, N73D, I74T, I81M, L83M, M100I
VL: B2 VL
notes: also called Ab2 version 2

Where a chain is given by its changes, count along the chain named. In names and notes the source's numbering stands.

One experiment concerns the target T1, human OSMR expressed on cells (human, UniProt Q99650 28-979).
T1 sequence: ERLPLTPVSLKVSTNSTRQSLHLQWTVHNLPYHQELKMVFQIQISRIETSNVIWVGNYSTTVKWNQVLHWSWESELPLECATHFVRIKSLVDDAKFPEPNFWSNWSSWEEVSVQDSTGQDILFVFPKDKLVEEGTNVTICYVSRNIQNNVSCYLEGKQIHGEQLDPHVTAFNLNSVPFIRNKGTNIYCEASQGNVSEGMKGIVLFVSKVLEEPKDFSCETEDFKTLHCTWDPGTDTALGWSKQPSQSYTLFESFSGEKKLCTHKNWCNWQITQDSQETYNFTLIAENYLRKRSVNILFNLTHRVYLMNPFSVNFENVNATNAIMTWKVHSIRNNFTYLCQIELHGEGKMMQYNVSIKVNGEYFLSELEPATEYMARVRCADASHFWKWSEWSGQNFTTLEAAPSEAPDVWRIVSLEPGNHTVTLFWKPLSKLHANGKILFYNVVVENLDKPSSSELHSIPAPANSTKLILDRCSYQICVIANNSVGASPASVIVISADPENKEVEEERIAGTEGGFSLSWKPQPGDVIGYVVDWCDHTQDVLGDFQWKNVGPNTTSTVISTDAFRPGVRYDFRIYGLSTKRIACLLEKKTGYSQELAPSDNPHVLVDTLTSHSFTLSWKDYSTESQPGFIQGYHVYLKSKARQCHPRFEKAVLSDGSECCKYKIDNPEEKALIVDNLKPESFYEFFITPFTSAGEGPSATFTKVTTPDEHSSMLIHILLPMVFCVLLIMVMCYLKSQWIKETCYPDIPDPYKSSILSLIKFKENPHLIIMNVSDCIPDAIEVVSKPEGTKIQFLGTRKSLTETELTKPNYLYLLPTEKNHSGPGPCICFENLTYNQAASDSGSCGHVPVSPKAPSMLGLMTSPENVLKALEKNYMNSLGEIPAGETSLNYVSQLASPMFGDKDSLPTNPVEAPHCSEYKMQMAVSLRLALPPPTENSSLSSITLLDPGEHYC
Kind of experiment: cell-based or functional assay.
Turning to B1, the “IC50, IL-31-induced proliferation of BaF3 cells expressing human IL-31RA4 and OSMR” value (“IC50, IL-31-induced proliferation” below) was 0.0352 nM; the “IC50, OSM-induced STAT3 nuclear translocation in primary normal human lung fibroblasts” value (shortened to “IC50 … in primary normal human lung fibroblasts”) amounted to 0.157 nM.
Regarding B2, the “IC50, IL-31-induced proliferation” value was 0.0276 nM; the “IC50 … in primary normal human lung fibroblasts” value is 0.252 nM.
For the molecule B3, the “IC50, IL-31-induced proliferation” value was 0.78 nM; the “IC50 … in primary normal human lung fibroblasts” value was found to be 1.35 nM.

Another experiment deals with T2, cynomologus OSMR expressed on cells (cynomologus monkey (Macaca fascicularis), UniProt Q99650 28-978 (human entry)).
T2 chain: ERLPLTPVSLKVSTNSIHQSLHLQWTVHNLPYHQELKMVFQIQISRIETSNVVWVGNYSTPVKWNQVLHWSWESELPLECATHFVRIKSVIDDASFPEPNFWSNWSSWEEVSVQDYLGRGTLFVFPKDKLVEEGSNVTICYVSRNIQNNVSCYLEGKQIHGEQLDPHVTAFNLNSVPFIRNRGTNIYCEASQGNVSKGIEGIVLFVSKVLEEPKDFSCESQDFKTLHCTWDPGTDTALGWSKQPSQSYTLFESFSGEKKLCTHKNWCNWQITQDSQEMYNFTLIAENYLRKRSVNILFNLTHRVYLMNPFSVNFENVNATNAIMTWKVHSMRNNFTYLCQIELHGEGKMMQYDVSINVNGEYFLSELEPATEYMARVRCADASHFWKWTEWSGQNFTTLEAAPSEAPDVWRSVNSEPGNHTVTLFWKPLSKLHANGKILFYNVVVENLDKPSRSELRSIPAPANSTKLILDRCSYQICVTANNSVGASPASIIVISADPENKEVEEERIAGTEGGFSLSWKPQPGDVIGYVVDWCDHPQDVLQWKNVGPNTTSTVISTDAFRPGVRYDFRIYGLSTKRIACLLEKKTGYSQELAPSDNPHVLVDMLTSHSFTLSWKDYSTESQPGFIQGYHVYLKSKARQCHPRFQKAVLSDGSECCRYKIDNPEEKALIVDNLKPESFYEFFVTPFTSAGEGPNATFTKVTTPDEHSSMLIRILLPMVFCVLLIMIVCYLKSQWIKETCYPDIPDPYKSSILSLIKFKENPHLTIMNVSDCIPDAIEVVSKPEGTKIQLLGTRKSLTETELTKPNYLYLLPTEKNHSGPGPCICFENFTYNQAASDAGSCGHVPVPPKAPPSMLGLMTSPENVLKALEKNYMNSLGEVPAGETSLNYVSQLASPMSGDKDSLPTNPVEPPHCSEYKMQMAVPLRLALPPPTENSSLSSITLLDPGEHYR
Put plainly: cell-based or functional assay.
B1: the “IC50, cyno IL-31-induced proliferation of BaF3 cells overexpressing cyno IL-31RA and OSMR” value (shortened to “IC50, cyno IL-31-induced proliferation”) was determined as 0.225 nM; the “IC50, cyno OSM-induced STAT3 nuclear translocation in a primary kidney epithelial cell line” value (from here on “IC50 … in a primary kidney epithelial cell line”) worked out at 1.26 nM.
For the molecule B2, the “IC50, cyno IL-31-induced proliferation” value is 0.0293 nM; the “IC50 … in a primary kidney epithelial cell line” value was determined as 0.518 nM.
As to B3, the “IC50, cyno IL-31-induced proliferation” value turned out to be 6.87 nM; the “IC50 … in a primary kidney epithelial cell line” value was determined as 1.24 nM.

The target in another experiment is T3, OSMR (UniProt Q99650 28-740).
T3 sequence (looked up): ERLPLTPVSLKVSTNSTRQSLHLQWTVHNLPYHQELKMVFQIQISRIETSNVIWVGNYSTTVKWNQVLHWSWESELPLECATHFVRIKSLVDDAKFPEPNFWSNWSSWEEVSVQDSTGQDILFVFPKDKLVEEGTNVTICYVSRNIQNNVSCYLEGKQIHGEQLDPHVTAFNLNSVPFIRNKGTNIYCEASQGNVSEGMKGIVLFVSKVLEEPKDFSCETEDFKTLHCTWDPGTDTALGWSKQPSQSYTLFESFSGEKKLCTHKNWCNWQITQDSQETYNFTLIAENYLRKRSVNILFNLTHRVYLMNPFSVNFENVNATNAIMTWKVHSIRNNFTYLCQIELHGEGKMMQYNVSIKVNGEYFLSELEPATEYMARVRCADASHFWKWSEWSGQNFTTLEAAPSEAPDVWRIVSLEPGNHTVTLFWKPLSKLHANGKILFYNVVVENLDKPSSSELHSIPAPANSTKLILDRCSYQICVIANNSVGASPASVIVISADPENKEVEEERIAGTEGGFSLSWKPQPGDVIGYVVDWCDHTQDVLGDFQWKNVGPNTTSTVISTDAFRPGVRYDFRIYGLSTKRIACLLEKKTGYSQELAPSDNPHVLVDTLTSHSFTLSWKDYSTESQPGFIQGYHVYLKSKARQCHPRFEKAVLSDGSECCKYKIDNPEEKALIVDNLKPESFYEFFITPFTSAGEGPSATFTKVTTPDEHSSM
Kind of experiment: Capture ELISA (avidity-less format). Background: In an ELISA, binding on a coated surface is turned into a signal by an enzyme label.
With B1, the half-maximal effective concentration (EC50) stood at 10.2 nM.
The same measure, in the same setting: with B4 the figure was 2.86 nM; with B5, 4.85 nM; with B6, 1.61 nM.
The same measure, in the same setting: with B7 the figure was 5.49 nM; with B2, 3.63 nM.

A further experiment addresses T3, OSMR. Put plainly: Sandwich ELISA (solution phase format).
As to B1, the EC50 is 0.581 nM.
On the same count and under the same terms, with B4 the figure was 0.05 nM; with B5, 0.359 nM; with B6, 0.064 nM.
The same measure, in the same setting: in the case of B7 it was 0.343 nM; in that of B2, 0.366 nM.

Another experiment has as its target T3, OSMR. Put plainly: Direct ELISA (solid state avidity format).
The molecule B1 returned an EC50 of 0.184 nM.
Molecule B4 had a concentration giving a half-maximal response (EC50) of 0.0626 nM.
Same read-out and setting: in the case of B5 it was 0.0728 nM; in that of B6, 0.0558 nM; in that of B7, 0.179 nM.
On the same count and under the same terms, with B2 the figure was 0.182 nM.

A further experiment addresses T4, Soluble OSMR (UniProt Q99650 28-740).
T4 sequence (looked up): T3 sequence (looked up)
Kind of experiment: BIAcore, antibody immobilized on CM4 chip, soluble OSMR analyte.
Description: Binding studies were performed using the BIAcore method. Antibodies containing the variable regions of Ab1 or Ab2 (or the N73D variant of Ab1 or Ab2) with different Fe regions were immobilized on a CM4 chip (GE lifesciences) as per manufacturer's protocols. Soluble OSMR was used as the analyte.
Take B1: the equilibrium dissociation constant (Kd) came out at 0.913 nM, the koff turned out to be 0.00015 s⁻¹ and the association rate constant (kon) amounted to 164000 M⁻¹ s⁻¹.
The corresponding values for B5 are 0.675 nM, 0.000168 s⁻¹ and 249000 M⁻¹ s⁻¹.
The corresponding values for B7 are 0.289 nM, 4.99e-05 s⁻¹ and 173000 M⁻¹ s⁻¹.
The corresponding values for B2 are 1.01 nM, 0.000189 s⁻¹ and 188000 M⁻¹ s⁻¹.

Another experiment addresses T5, hOSMR.FH (human, UniProt Q99650 28-740).
T5 construct: also called huOSMR
T5 sequence: T3 sequence (looked up)
Kind of experiment: SPR, Biacore 3000, antibody captured by anti-human IgG, hOSMR.FH analyte, 25 C.
Description: Biosensor analysis was conducted at 25 C in a HBS-EP+(1×) buffer system (10 mM HEPES pH 7.4, 150 mM NaCl, 3.0 mM EDTA, 0.05% Surfactant P20) using a Biacore 3000 optical biosensor equipped with a CM5 sensor chip. All reagents were kept at 8° C. prior to injection. […] Antibodies 1-3 were diluted (0.25 to 0.5 μg/mL) in running buffer. The antibodies were injected (15 μL) over Flow Cell 2 at a flow rate of 10 μL/min. About 50 RU of antibody was captured. […] Samples were run in duplicate and in random order.
Buffer analyte blanks (0 nM hOSMR) were injected before, in-between, and after sample injections. Antibodies were injected (15 μL) over Flow Cell 2 at a flow rate of 10 μL/min. About 50 RU of antibody was captured. […] The samples were run in triplicate.
Data was analyzed with Scrubber 2.0 software as follows. Data from Flow Cell 2 was subtracted from the data from Flow Cell I (blank reference). The reference subtracted data (2-1) was then subtracted (double referenced) from the nearest 0 nM concentration data. The double referenced long dissociation data was fit to a 1:1 binding model to determine the dissociation rate constant (kd). This dissociation rate constant was used as a fixed parameter to fit the double referenced short dissociation data to a 1:1 binding model in order to determine the association rate constant (ka) and the equilibrium dissociation constant (Kd).
B1 registered a dissociation constant (Kd) of 0.221 nM, a koff of 9.95e-05 s⁻¹ and an association rate constant (kon) of 447000 M⁻¹ s⁻¹.
B2: the affinity, expressed as Kd, was 0.0327 nM; the koff turned out to be 1.81e-05 s⁻¹; the kon stood at 550000 M⁻¹ s⁻¹.
The corresponding values for B3 are 1.08 nM, 0.000102 s⁻¹ and 94700 M⁻¹ s⁻¹.
